Measurements taken from patent publication US11202837B2, “Biological materials and uses thereof” (Antikor Biopharma Limited, priority 2014, dated 2021).
≈ marks a conversion by molar mass, not a printed value. Read-outs that look alike come from different tables or passages of the source. Where a SMILES comes first, the peptide text is derived from it. [ ]: non-standard residue; d: D form. The star is where a group is joined. Dolaproine = CO[C@@H]([C@@H]1CCCN1)[C@@H](C)C(=O)O; Dil = CC[C@H](C)[C@H](NC)[C@@H](CC(=O)O)OC; NMe2Val = CC(C)[C@@H](C(=O)*)N(C)C

Tests used:
SKBr3 cells = test: Cell killing assay (MTS), SKBr3 cells; format: cell-based, human
Procedure: SKBr3, human breast cancer cell line, high HER2 expression levels, up to 1,000,000 receptors per cell [Lazar G A, et al Proc Natl Acad Sci USA. […] When confluency was 70-80%, cells were washed with PBS (2×10 ml) and incubated with trypsin for 5-7 min. Complete media was added and the cells were resuspended by pipetting. The cells were recovered by centrifugation (2 min, 2000 rpm), the supernatant was discarded, and the cells were resuspended in complete DMEM (5 ml). The cells were then counted using a haemocytometer and diluted accordingly. They were plated at 4500 cells/well (200 μl) using attachment factor and incubated overnight at 37° C., 5% CO2 in a humidified atmosphere. U87 is a non-HER2 expressing glioblastoma cell line and was grown in a similar way, plated at 1000 cells/well.
(§1) […] Cell viability was measured using the Promega Aqueous Cell-titre-96™ aqueous one solution cell proliferation kit according to manufacturer's instructions. Briefly, the media was removed and 100 μl of complete phenol red free media, pre-combined with MTS reagent, was added to the cells (20 μl of reagent per 100 μl of media). The plates were read on an ELISA plate reader at 490 nm after a 2 hr incubation in the dark (5% CO2, 37° C.).
The data (absorption units) were converted to % cell survival by using the untreated controls as the 100% cell survival and the Triton X-100 controls as the 100% cell death. The average absorption value for the latter was subtracted from all the rest of the data in order to get a suitable baseline. The averages were converted to survival and standard error values were obtained for each n value (as a % cell survival). […] Experiments were repeated at least 3 times for each compound tested and a set or an average of the data was plotted and fitted to obtain a dose response curve.
The cells were recovered by centrifugation (2 min, 2000 rpm), the supernatant was discarded, and the cells were resuspended in complete McCoy's 5A (5 ml). The cells were then counted using a haemocytometer and diluted accordingly. They were plated at 5000 cells/well (200 μl) using attachment factor and incubated overnight at 37° C., 5% CO2 in a humidified atmosphere. U87 is a non-HER2 expressing glioblastoma cell line [Zitron I M et al (2013) BMC Cancer 13:83] and was grown in a similar way, plated at 1000 cells/well (using DMEM media). BT474 is a HER2 expressing breast cancer cell line [Brockhoff G et al (2007) Cell Prolif 40:488-507] and was grown in a similar way, plated at 7500 cells/well (using RPMI media). NCI-N87 is a HER2 expressing gastric cancer cell line [Yamashita-Kashima Y et al (2013) Oncol. Rep 30:1087-93] and was grown in a similar way, plated at 7500 cells/well (using RPMI media).
as §1, with “kit (MTS reagent)” for “kit”
The data (absorption units) were converted to % cell survival by using the untreated controls as the 100% cell survival and the Triton X-100 controls as the 100% cell death. The average absorption value for the latter was subtracted from all the rest of the data in order to get a suitable baseline. The averages were converted to survival and standard error values were obtained for each n value (as a % cell survival).

HER2 = HER2 (Homo sapiens, UniProt P04626); test: Biacore SPR binding to immobilised HER2; settings: immobilised HER2
Procedure: The binding affinity against immobilised HER2 target antigen was determined by Biacore SPR compared to the unmodified scFv on a Biacore T200. A standard amine-coupling method was used to prepare all Biacore surfaces (CM5 or CM3), as follows. Flow cells were activated individually by injecting a freshly mixed solution of 0.2M EDC in 0.05 M NHS at 30 μl/min. […] Excess NHS ester was deactivated using a 1 M ethanolamine solution. To measure the kinetics of the antibody and conjugate on the HER2 chip, a […] serial dilution (typically at 5, 2.5, 1.25, 0.6 μg/ml or lower for free antibody and 20, 10, 5, 2.5 μg/ml for the conjugates), was injected for 160 s at 30 μl/min, allowing a 900-s dissociation phase. The dissociation time was extended to 3600 s for the highest concentration. Surfaces were regenerated with 45 s injection of MgCl2 8M.
To evaluate binding ability, manual runs were performed at 30 μl/min with a 60 s injection of the desired compound followed by 60 s waiting time and a 45 s of regeneration at 10 μl/min using MgCl2 8M. All data was analysed using the software, BIAEvaluation.

[1] = SKBr3 Cells (HER2 +++), 4 hours incubation, Table 52
[2] = SKBr3 Cells (HER2 +++), 4 hours incubation, Table 52, read-out: IC50
[3] = SKBr3 Cells (HER2 +++), 96 hours incubation, Table 52
[4] = SKBr3 Cells (HER2 +++), 96 hours incubation, Table 52, read-out: IC50
[5] = 96 hours exposure, read-out: IC50 nM SKBr3 Cells (HER2+++)

Molecule | IC50 μg/ml (SKBr3 cells; [1]) | IC50 (SKBr3 cells; [2]) | IC50 μg/ml (SKBr3 cells; [3]) | IC50 (SKBr3 cells; [4]) | association rate (HER2) | dissociation rate (HER2) | IC50 μg/ml SKBr3 Cells (HER2+++) (SKBr3 cells; 96 hours exposure) | IC50 (SKBr3 cells; [5])
CC[C@H](C)[C@@H]([C@@H](CC(=O)N1CCC[C@H]1[C@H](OC)[C@@H](C)C(=O)N[C@@H](Cc1ccccc1)C(=O)O)OC)N(C)C(=O)[C@@H](NC(=O)[C@H](C(C)C)N(C)C)C(C)C [Free Auristatin] (NMe2Val-V[Dil][Dolaproine]F-OH) | 0.00181 µg/mL (≈ 2.43 nM) | > 100 nM | 0.00081 µg/mL (≈ 1.09 nM) | > 10 nM |  |  |  | 
scFv (TCT1067)-MMAF-C5 DAR 5.2 (conjugate) scFv: SGSGGSGQVQLVQSGAEVKKPGESLKISCKGSGYSFTSYWIAWVRQMPGKGLEYMGLIYPGDSDTKYSPSFQGQVTISVDKSVSTAYLQWSSLKPSDSAVYFCARHDVGYCTDRTCAAWPEWLGVWGQGTLVTVSSGGGGSGGGGSGGGGSQSVLTQPPSVSAAPGQKVTISCSGSSSNIGNNYVSWYQQLPGTAPKLLIYGHTNRPAGVPDRFSGSKSGTSASLAISGFRSEDEADYYCASWDYTLSGWVFGGGTKLTVLMASMTGGQQMG |  |  |  |  | 1.8e+06 M⁻¹ s⁻¹ | 3.4e-05 s⁻¹ |  | 
ScFv (TCT1067)-AF-C5 DAR 5.3 (conjugate) scFv: SGSGGSGQVQLVQSGAEVKKPGESLKISCKGSGYSFTSYWIAWVRQMPGKGLEYMGLIYPGDSDTKYSPSFQGQVTISVDKSVSTAYLQWSSLKPSDSAVYFCARHDVGYCTDRTCAAWPEWLGVWGQGTLVTVSSGGGGSGGGGSGGGGSQSVLTQPPSVSAAPGQKVTISCSGSSSNIGNNYVSWYQQLPGTAPKLLIYGHTNRPAGVPDRFSGSKSGTSASLAISGFRSEDEADYYCASWDYTLSGWVFGGGTKLTVLMASMTGGQQMG | 0.00181 µg/mL | 0.0644 nM | 0.00081 µg/mL | 0.0288 nM |  |  |  | 
scFv (TCT1067)-Auristatin-F-C5 DAR 3.3 (conjugate) scFv: SGSGGSGQVQLVQSGAEVKKPGESLKISCKGSGYSFTSYWIAWVRQMPGKGLEYMGLIYPGDSDTKYSPSFQGQVTISVDKSVSTAYLQWSSLKPSDSAVYFCARHDVGYCTDRTCAAWPEWLGVWGQGTLVTVSSGGGGSGGGGSGGGGSQSVLTQPPSVSAAPGQKVTISCSGSSSNIGNNYVSWYQQLPGTAPKLLIYGHTNRPAGVPDRFSGSKSGTSASLAISGFRSEDEADYYCASWDYTLSGWVFGGGTKLTVLMASMTGGQQMG |  |  |  |  | 556000 M⁻¹ s⁻¹ | 1.82e-05 s⁻¹ |  | 
scFv (TCT)-P5C5, DAR = 5 (conjugate) scFv: SGSGGSGQVQLVQSGAEVKKPGESLKISCKGSGYSFTSYWIAWVRQMPGKGLEYMGLIYPGDSDTKYSPSFQGQVTISVDKSVSTAYLQWSSLKPSDSAVYFCARHDVGYCSSSNCAAWPEYFQHWGQGTLVTVSSGGGGSGGGGSGGGGSQSVLTQPPSVSAAPGQKVTISCSGSSSNIGNNYVSWYQQLPGTAPKLLIYGHTNRPAGVPDRFSGSKSGTSASLAISGFRSEDEADYYCAAWDDSLSGWVFGGGTKLTVLMASMTGGQQMG |  |  |  |  |  |  | 1.33 ± 0.1 µg/mL | 47.5 ± 0.36 nM
scFv (TCT)-P5C5, DAR = 8 (conjugate) scFv: SGSGGSGQVQLVQSGAEVKKPGESLKISCKGSGYSFTSYWIAWVRQMPGKGLEYMGLIYPGDSDTKYSPSFQGQVTISVDKSVSTAYLQWSSLKPSDSAVYFCARHDVGYCSSSNCAAWPEYFQHWGQGTLVTVSSGGGGSGGGGSGGGGSQSVLTQPPSVSAAPGQKVTISCSGSSSNIGNNYVSWYQQLPGTAPKLLIYGHTNRPAGVPDRFSGSKSGTSASLAISGFRSEDEADYYCAAWDDSLSGWVFGGGTKLTVLMASMTGGQQMG |  |  |  |  |  |  | 0.8 ± 0.1 µg/mL | 28 ± 0.36 nM
